Laboratory results from US11015206B2, “Compositions and methods comprising sequences having hydroxyphenylpyruvate dioxygenase (HPPD) activity” (PIONEER HI-BRED INTERNATIONAL, INC., priority 2014, dated 2021).

Columns and labels:
Assay type in all cases: biochemical, Z. mays
[1] = system: 4-hydroxyphenylpyruvate dioxygenase (HPPD); test: Insensitivity parameter (ON × OFF) and trait fitness (ON × OFF × kcat/KM or × kcat); design: key to ON × OFF / Insensitivity, mesotrione, ON × OFF / Insensitivity, tembotrione, ON × OFF / Insensitivity, topramezone, ON × OFF / Insensitivity, sulcotrione, ON × OFF / Insensitivity, isoxaflutole (DKN), ON × OFF: insensitivity = ON rate ratio × OFF rate ratio (surrogate for KD); settings: for Insensitivity, isoxaflutole (DKN), ON × OFF / Insensitivity, isoxaflutole (DKN), Trait fitness: inhibitor diketonitrile form of isoxaflutole (DKN); for Insensitivity, mesotrione, ON × OFF / Insensitivity, mesotrione, Trait Fitness: inhibitor mesotrione; for Insensitivity, sulcotrione, ON × OFF / Insensitivity, sulcotrione, Trait fitness: inhibitor sulcotrione; for Insensitivity, tembotrione, ON × OFF / Insensitivity, tembotrione, Trait fitness: inhibitor tembotrione; for Insensitivity, topramezone, ON × OFF / Insensitivity, topramezone, Trait Fitness: inhibitor topramezone
In short: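 Calculated, not measured directly: ON rate ratio × OFF rate ratio gives an insensitivity parameter serving as a KD surrogate.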

[2] = system: 4-hydroxyphenylpyruvate dioxygenase (HPPD); test: ON rate ratio: HPPD reaction rate with vs without inhibitor in the 70 to 90 second interval; settings: for ON rate ratio: Table 7, tembotrione, combinatorial variants; for Insensitivity, isoxaflutole (DKN), Rate ratio ON: inhibitor diketonitrile form of isoxaflutole (DKN); for Insensitivity, mesotrione, Rate ratio ON: inhibitor mesotrione; for Insensitivity, sulcotrione, Rate ratio ON: inhibitor sulcotrione; for Insensitivity, tembotrione, Rate ratio ON: inhibitor tembotrione; for Insensitivity, topramezone, Rate ratio ON: inhibitor topramezone
In short: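 Time courses of HPPD reactions, 60 or 120 nM enzyme with 100 μM HPP substrate, run with and without 4 μM inhibitor (e.g. mesotrione, tembotrione). Value is the rate with inhibitor over rate without, taken over 70–90 s; higher ratio reflects slower kON.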

[3] = system: 4-hydroxyphenylpyruvate dioxygenase (HPPD); test: OFF rate ratio: release of inhibitor from pre-formed enzyme-inhibitor complex; settings: for OFF rate ratio: Table 7, tembotrione, combinatorial variants; for Insensitivity, isoxaflutole (DKN), Rate ratio OFF: inhibitor diketonitrile form of isoxaflutole (DKN); for Insensitivity, mesotrione, Rate ratio OFF: inhibitor mesotrione; for Insensitivity, sulcotrione, Rate ratio OFF: inhibitor sulcotrione; for Insensitivity, tembotrione, Rate ratio OFF: inhibitor tembotrione; for Insensitivity, topramezone, Rate ratio OFF: inhibitor topramezone
In short: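 HPPD (7.2 μM) pre-incubated 1 h at RT with inhibitor (8 μM), then diluted into 25 mM Hepes pH 7, 2 mM ascorbate, 10 μM FeSO4, 100 μM HPP, 50 nM HGD; A320 followed 12 min. Ratio = steady-state rate with inhibitor over initial rate of inhibitor-free enzyme.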

[4] = system: 4-hydroxyphenylpyruvate dioxygenase (HPPD); test: Estimate of kcat from initial rate at saturating hydroxyphenylpyruvate without inhibitor (ON rate ratio assay)
In short: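 Reactions used 60 or 120 nM HPPD and saturating 100 μM hydroxyphenylpyruvate without inhibitor. kcat was estimated from the initial rate at the known enzyme concentration.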

[5] = Table 7, tembotrione, combinatorial variants
[6] = Table 7, combinatorial variants

| Molecule | ON × OFF ([1]; Megatable 3, shuffled variants) | ON × OFF × kcat ([1]; Megatable 3, shuffled variants) | ON × OFF [1, 5] | ON × OFF × kcat [1, 5] | Insensitivity, isoxaflutole (DKN), ON × OFF [1] | Insensitivity, isoxaflutole (DKN), Trait fitness [1] | Insensitivity, mesotrione, ON × OFF [1] | Insensitivity, mesotrione, Trait Fitness [1] | Insensitivity, sulcotrione, ON × OFF [1] | Insensitivity, sulcotrione, Trait fitness [1] | Insensitivity, tembotrione, ON × OFF [1] | Insensitivity, tembotrione, Trait fitness [1] | Insensitivity, topramezone, ON × OFF [1] | Insensitivity, topramezone, Trait Fitness [1] | ON rate ratio [2] | Insensitivity, isoxaflutole (DKN), Rate ratio ON [2] | Insensitivity, mesotrione, Rate ratio ON [2] | Insensitivity, sulcotrione, Rate ratio ON [2] | Insensitivity, tembotrione, Rate ratio ON [2] | Insensitivity, topramezone, Rate ratio ON [2] | also measured |
| --- | --- | --- | --- | --- | --- | --- | --- | --- | --- | --- | --- | --- | --- | --- | --- | --- | --- | --- | --- | --- | --- |
| P056028-G-01R (protein, Zea mays variant form created by artificial means.) MGPTPTATAAGAAVAAASAAEQAAFRLVGHRNFVRFNPRSDRFQTLAFHHVELWCADAASAAGRFSFALGVPLAARSDLSTGNSAHASLLLRSGSLSLLFTAPYAHGADAATAALPSFSAAAARRFAADHGLAVRAVALRVADAEDAFRASVAAGARPAFGPVDLGRGFRLAEVELYGDVVLRYVSYPDGAAGEPFLPGFEGVASPGAADLGLNRFDHIVGNVPELAPAAAYMAGFTGFHEFAEFTTEDVGTTESGLNSMALANNSENVLLPLNEPVHGTKRRSQIQTFLDHHGGPGVQHIALASDDVLRTLREMRARSAMGGFEFLPPPLSDYYDGVRKCAGDVLTEAQINECQELGVMVDRDDEGVLLQIFTKPVGDRPTFFLEIIQRIGCREKDEKGQEYQKGGCGGFGKGNFGQLFKSIEDYEKSLEKKRAAAAATAQGS | 0.201 | 14.24 | 0.201 | 14.24 | 0.29 | 3.98 | 0.73 | 25.6 | 0.83 | 11.5 | 0.20 | 7.09 | 0.43 | 5.91 | 0.719 | 0.77 | 0.73 | 0.75 | 0.72 | 0.81 | OFF rate ratio [3]: 0.280; Insensitivity, isoxaflutole (DKN), Rate ratio OFF [3]: 0.38; Insensitivity, mesotrione, Rate ratio OFF [3]: 1.00; Insensitivity, sulcotrione, Rate ratio OFF [3]: 1.11; Insensitivity, tembotrione, Rate ratio OFF [3]: 0.28; Insensitivity, topramezone, Rate ratio OFF [3]: 0.53; kcat ([4]; Megatable 3, shuffled variants): 1.18 s⁻¹; kcat [4, 6]: 1.18 s⁻¹ |
| P056028-B-02 (protein, Zea mays variant form created by artificial means.) MGPTPTATAAGAAVAAASAAEQAAFRLVGHRNFVRFNPRSDRFQTLAFHHVELWCADAASAAGRFSFALGVPLAARSDLSTGNSAHASLLLRSGSLSLLFTAPYAHGADAATAALPSFSAAAARRFAADHGLAVRAVALRVADAEDAFRASVAAGARPAFGPVDLGRGFRLAEVELYGDVVLRYVSYPDGAAGEPFLPGFEGVASSGAADYGLSRFDHIVGNVPELAPAAAYMAGFTGFHEFAEFTTEDVGTTESGLNSMALANNSENVLLPLNEPVHGTKRRSQIQTFLDHHGGPGVQHIALASDDVLRTLREMRARSAMGGFEFLPPPLSDYYDGVRRCAGDVLTEAQINECQKLGVMVDRDDEGVLLQIFTKPVGDRPTFFLEIIQRIGCMEKDEKGQEYQKGGCGGFGKGNFGQLFKSIEDYERSLEAKQAAAVATAQGS | 0.375 | 10.58 | 0.375 | 10.58 | 0.35 | 6.78 | 0.63 | 12.3 | 0.81 | 15.8 | 0.37 | 7.35 | 0.42 | 8.17 | 0.800 | 0.80 | 0.63 | 0.81 | 0.80 | 0.79 | OFF rate ratio [3]: 0.469; Insensitivity, isoxaflutole (DKN), Rate ratio OFF [3]: 0.43; Insensitivity, mesotrione, Rate ratio OFF [3]: 1.00; Insensitivity, sulcotrione, Rate ratio OFF [3]: 1.00; Insensitivity, tembotrione, Rate ratio OFF [3]: 0.47; Insensitivity, topramezone, Rate ratio OFF [3]: 0.53; kcat ([4]; Megatable 3, shuffled variants): 0.47 s⁻¹; kcat [4, 6]: 0.47 s⁻¹ |
